Data from US10005846 (LIFEARC, dated 2018).

Legend:
[1] = target: T1, human transglutaminase type 2 (TG2) (human, UniProt P21980 1-687); experiment: cell-based or functional assay
T1 sequence: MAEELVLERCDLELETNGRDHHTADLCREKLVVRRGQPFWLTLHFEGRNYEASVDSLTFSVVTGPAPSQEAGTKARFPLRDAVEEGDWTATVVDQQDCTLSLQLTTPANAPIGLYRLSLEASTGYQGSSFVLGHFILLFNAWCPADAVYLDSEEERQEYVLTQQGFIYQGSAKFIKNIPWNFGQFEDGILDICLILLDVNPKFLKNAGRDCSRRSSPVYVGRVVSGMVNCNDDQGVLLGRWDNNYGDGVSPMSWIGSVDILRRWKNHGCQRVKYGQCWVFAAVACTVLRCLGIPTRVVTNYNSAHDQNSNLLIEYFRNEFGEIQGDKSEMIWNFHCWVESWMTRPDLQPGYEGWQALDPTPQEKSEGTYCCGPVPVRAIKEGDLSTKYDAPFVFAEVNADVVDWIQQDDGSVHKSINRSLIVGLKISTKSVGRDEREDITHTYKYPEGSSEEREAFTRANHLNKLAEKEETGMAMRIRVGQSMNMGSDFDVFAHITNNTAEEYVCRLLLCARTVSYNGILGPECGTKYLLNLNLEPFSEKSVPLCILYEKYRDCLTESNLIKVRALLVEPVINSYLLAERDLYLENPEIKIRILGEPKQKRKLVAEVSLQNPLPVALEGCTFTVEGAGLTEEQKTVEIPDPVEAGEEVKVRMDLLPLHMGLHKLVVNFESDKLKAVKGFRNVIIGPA

[2] = target: T2, TG13; experiment: ELISA, purified IgG at 0.1 ug/ml, plates coated with 100 ng of each TG [panel B]
T2 construct: also called Factor XIIIa
T2 chain: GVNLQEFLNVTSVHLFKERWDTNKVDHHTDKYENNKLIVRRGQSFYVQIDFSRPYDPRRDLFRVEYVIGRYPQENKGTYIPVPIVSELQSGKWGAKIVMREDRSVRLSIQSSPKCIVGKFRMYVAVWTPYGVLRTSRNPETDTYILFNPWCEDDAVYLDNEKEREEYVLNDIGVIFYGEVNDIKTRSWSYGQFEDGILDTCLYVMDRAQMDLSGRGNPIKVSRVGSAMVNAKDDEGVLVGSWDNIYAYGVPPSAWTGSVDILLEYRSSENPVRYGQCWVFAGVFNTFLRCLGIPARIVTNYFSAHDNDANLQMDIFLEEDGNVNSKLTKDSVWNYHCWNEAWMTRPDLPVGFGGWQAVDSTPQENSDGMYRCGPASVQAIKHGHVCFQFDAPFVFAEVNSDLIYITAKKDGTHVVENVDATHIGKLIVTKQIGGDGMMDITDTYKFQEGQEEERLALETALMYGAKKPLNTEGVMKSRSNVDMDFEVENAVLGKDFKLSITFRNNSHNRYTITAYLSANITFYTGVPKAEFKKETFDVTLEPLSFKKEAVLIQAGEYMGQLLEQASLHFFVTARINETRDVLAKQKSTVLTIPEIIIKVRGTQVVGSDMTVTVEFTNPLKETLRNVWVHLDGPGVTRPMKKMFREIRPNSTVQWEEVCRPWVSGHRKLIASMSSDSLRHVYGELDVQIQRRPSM
Description: (§1) Conditioned medium or purified IgG were tested for reactivity to transglutaminase family members. The ability of each to bind to each transglutaminase (TG1, TG2, TG3, TG5, TG7 and Factor XIIIa; all Zedira) was determined using a plate binding assay. Microtiter plates (Costar, Cambridge, UK) were coated with recombinant TG (Zedira, Darmstadt, Germany) in 50 μl of 0.1 M bicarbonate/carbonate buffer (pH 9.6) overnight at 4° C. Plates were blocked for 2 h at 37° C. with 200 μl PBS containing 3% w/v BSA. Plates were washed three times with PBS containing 0.05% Tween 20 (washing buffer) and 100 μl of diluted conditioned medium (dilution 1:5 to 1:20) or purified anti-TG2 catalytic core mAbs was added. Plates were incubated for a further 1 h at room temperature. The washing step was repeated and anti-mouse gamma chain-horseradish peroxidase (1:5000) in PBS containing 0.05% Tween 20 (v:v) and 1% BSA (w:v) (Sigma, Poole UK) was added for 1 h. […] The reaction was stopped by adding 25 μl of 0.1 M H_2SO_4 and the absorbance at 450 nm was determined.

[3] = target: T3, TG3 (human, UniProt Q08188); experiment: as above
T3 construct: recombinant, Zedira; also called recombinant human TG3; Epidermal Transglutaminase
T3 sequence (enzyme, looked up): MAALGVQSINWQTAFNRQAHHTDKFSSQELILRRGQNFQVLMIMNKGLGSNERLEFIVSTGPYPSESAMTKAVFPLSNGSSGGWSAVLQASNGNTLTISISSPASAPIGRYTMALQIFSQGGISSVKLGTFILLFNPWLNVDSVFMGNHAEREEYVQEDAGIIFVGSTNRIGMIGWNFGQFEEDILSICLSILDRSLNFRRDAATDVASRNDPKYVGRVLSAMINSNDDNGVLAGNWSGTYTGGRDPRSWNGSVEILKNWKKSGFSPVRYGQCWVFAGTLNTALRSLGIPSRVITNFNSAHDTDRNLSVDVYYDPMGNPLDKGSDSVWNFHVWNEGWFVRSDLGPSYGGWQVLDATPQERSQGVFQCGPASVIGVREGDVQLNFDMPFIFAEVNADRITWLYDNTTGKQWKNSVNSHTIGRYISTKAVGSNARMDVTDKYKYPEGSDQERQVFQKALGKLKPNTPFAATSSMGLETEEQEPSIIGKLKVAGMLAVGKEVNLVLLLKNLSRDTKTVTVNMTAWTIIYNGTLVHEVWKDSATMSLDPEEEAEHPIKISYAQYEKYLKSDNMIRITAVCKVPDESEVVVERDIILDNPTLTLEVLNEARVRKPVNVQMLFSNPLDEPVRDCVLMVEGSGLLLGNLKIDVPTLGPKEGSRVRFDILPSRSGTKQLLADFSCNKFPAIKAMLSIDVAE
Description: as §1

[4] = target: T1, human transglutaminase type 2 (TG2); experiment: cell-based or functional assay; remark: listed apart in the source

B1: AB1 murine monoclonal antibody (antibody, V domains shown)
VH: EVQLVESGGGLVKPGGSLKLSCAASGFTLSSSAMSWVRQTPDRRLEWVATISVGGGKTYYPDSVKGRFTISRDNAKNTLYLQMNSLRSEDTAMYYCAKLISLYWGQGTTLTVSS
VL: DIKMTQSPSSMYASLGERVTITCKASQDINSYLTWFQQKPGKSPKTLIYRTNRLFDGVPSRFSGSGSGQDFFLTISSLEYEDMGIYYCLQYDDFPYTFGGGTKLEIK
notes: Mouse hybridoma IgG; heavy chain amplified with constant region primer MHCG1, kappa light chain; also called mAB003
[1]
  half-maximal concentration of enzymatic inhibition, headed EC50 nM on the sheet, IC50 in the legend [panel A]: 9.5 nM

B2: BB7 murine monoclonal antibody (antibody, V domains shown)
VH: AVQLVESGGGLVKPGGSLKLSCAASGIIFSSSAMSWVRQTPEKRLEWVATISSGGRSTYYPDSVKGRFTVSRDSAKNTLYLQMDSLRSEDTAIYYCAKLISPYWGQGTTLTVSS
VL: AIKMTQSPSSMYASLGERVIITCKASQDINSYLTWFQQKPGKSPKTLIYLTNRLMDGVPSRFSGSGSGQEFLLTISGLEHEDMGIYYCLQYVDFPYTFGGGTKLEIK
notes: Mouse hybridoma IgG; heavy chain amplified with primer MHCG1, kappa light chain; also called mBB001
[1]
  half-maximal concentration of enzymatic inhibition, headed EC50 nM on the sheet, IC50 in the legend [panel B]: 0.752 nM

B3: DC1 murine monoclonal antibody (antibody, V domains shown)
VH: EVQLVESGGGLVKPGGSLKLSCAASGFTLSTHAMSWVRQTPEKRLEWVATISSGGRSTYYPDSVKGRFTISRDNVKNTLYLQLSSLRSEDTAVYFCARLISTYWGQGTTLTVSS
VL: DITMTQSPSSIYASLGERVTITCKASQDINSYLTWFQQKPGKSPKILIYLVNRLVDGVPSRFSGSGSGQDYALTISSLEYEDMGIYYCLQYDDFPYTFGGGTKLEIK
notes: Mouse hybridoma IgG; heavy chain amplified with primer MHCG1, kappa light chain; also called mDC001
[2]
  binding result: no binding (tested: 0.1 ug/ml)
[3]
  binding result: no binding (tested: 0.1 ug/ml)

B4: cBB001 chimeric antibody (murine BB7 variable regions) (antibody, human IgG1, V domains shown)
VH: AVQLVESGGGLVKPGGSLKLSCAASGIIFSSSAMSWVRQTPEKRLEWVATISSGGRSTYYPDSVKGRFTVSRDSAKNTLYLQMDSLRSEDTAIYYCAKLISPYWGQGTTLTVSS
VL: AIKMTQSPSSMYASLGERVIITCKASQDINSYLTWFQQKPGKSPKTLIYLTNRLMDGVPSRFSGSGSGQEFLLTISGLEHEDMGIYYCLQYVDFPYTFGGGTKLEIK
notes: also called chimeric BB7
[4]
  IC50 of enzymatic inhibition, dansylated lysine incorporation into N,N-dimethylated casein [panel B]: 0.925 nM
